Results as given in patent publication US20150377899A1.
Changes are numbered by the printed parent chain.

B1: p17-2 peptide (designed binder)
chain: GPGISAFSPGRGVYDPETGTWYDAAWHLGELVWATYYDPETGTWEPDWQRMLGQ
B2: p17_D47A (designed binder)
chain: B1 chain with D47A
B3: p17_R50A (designed binder)
chain: B1 chain with R50A
B4: p17_W48A (designed binder)
chain: B1 chain with W48A
B5: p17_M51A (designed binder)
chain: B1 chain with M51A
B6: p17_P46A (designed binder)
chain: B1 chain with P46A

Experiments:
[1] = molecular target: natural human Fc region prepared by papain digestion of human monoclonal IgG (Chugai Pharmaceutical Co., Ltd.) (human); assay: SPR Biacore T100, Fc immobilized on CM5, peptide as analyte
[2] = molecular target: natural human Fc region prepared by papain digestion of human monoclonal IgG (Chugai Pharmaceutical Co., Ltd.) (human); assay: SPR, KD compared
[3] = molecular target: natural human Fc region prepared by papain digestion of human monoclonal IgG (Chugai Pharmaceutical Co., Ltd.) (human); assay: SPR Biacore T100, Fc immobilized on CM5, polypeptide as analyte
[4] = molecular target: human Fc region manufactured by Jackson ImmunoResearch Laboratories, Inc. (human); assay: SPR Biacore T100, Fc immobilized on CM5, peptide as analyte
[5] = molecular target: human Fc region manufactured by Jackson ImmunoResearch Laboratories, Inc. (human); assay: SPR, KD compared
[6] = molecular target: natural human Fc region prepared by papain digestion of human monoclonal IgG (Chugai Pharmaceutical Co., Ltd.) (human); assay: SPR Biacore T100, Fc immobilized on CM5, Scatchard plot of equilibrium values

Binder	Kd [1]	Kd [3]	further results
DAAWHLGELVWATYYDPETGTWLPDWQTMAQK [pep21 peptide]	100 nM	–	fold improvement in affinity against the FcIII-Ala peptide [2]: 420 fold
B1	1.6 nM	–	fold improvement in binding affinity against the FcIII-Ala peptide [2]: 26000 fold; fold improvement in binding affinity against the pep24 peptide [2]: 138 fold
B2	–	45 nM	–
B3	–	7.8 nM	–
B4	–	200 nM	fold reduction in binding affinity against p17-2 [2]: > 100 fold
B5	–	180 nM	fold reduction in binding affinity against p17-2 [2]: > 100 fold
B6	–	5.6 nM	–
GVVRQWSGGGGSGGGGRSSIAYGGG [2A1Gly peptide]	–	–	Kd [4]: 23000 nM; binding affinity as a fraction of that of the 2A1 peptide [5]: < 0.001
DAAWHLGELVWATYYDPETGTWQPDWLYMTTR [pep14 peptide]	120 nM	–	–
DAAWHLGELVWATYYDPETGTWAPDWRLMQGQ [pep11 peptide]	510 nM	–	–
DAAWHLGELVWATYYDPETGTWEPDWQRMLGQ [pep24 peptide]	–	–	fold higher affinity against the particular sequence (FcIII-Ala) [2]: 190 fold
DAAWHLGELVWAT [FcIII-Ala peptide]	–	–	Kd [6]: 42000 nM
